Test results taken from patent publication US20200040065A1 (INTEGRATED BIOTHERAPEUTICS, published 2020).

Target: BDBV GP ectodomain (Bundibugyo virus)

B1: monoclonal antibody CA45 (antibody, V domains shown)
VH: QVQLQEWGEGLVKPSETLSLTCAVYGGSISGYYHWNWIRLPPGKGLEWIGNIDNSASTNYNPSLKTRVTISKDTSKNQISLKVRSLTAADTAVYYCARDPGFTIFGVVITSWSGLDSWGQGAVVTVSS
VL: DIQMTQSPSSLSASVGDTVTITCRASQSISNNLAWYQQRPRRAPQLLIYAASNLASGVPSRFSGSGSGTDFTLTISSLQAEDFAAYYCQQHNTLPLTFGGGTKVEI
Question: How did the EC50 turn out when B1 was run?
Answer: The EC50 was 0.65 to 1.41 nM.
